From PMC3936774
Read-outs that look alike come from different tables or passages of the source.

Key:
Ec Hfq F42W [1] = molecular target: T1, Ec Hfq F42W (Escherichia coli, UniProt P0A6X3 1-102, F42W); assay: fluorescence polarization
Ec Hfq Y83W [2] = molecular target: T2, Ec Hfq Y83W (Escherichia coli, UniProt P0A6X3 1-102, Y83W); assay: fluorescence polarization
Ec Hfq Q95W = Ec Hfq Q95W (Escherichia coli, UniProt P0A6X3 1-102, Q95W); assay: fluorescence polarization
Ec Hfq K31W = Ec Hfq K31W (Escherichia coli, UniProt P0A6X3 1-102, K31W); assay: fluorescence polarization
Ec Hfq R17W [3] = molecular target: T3, Ec Hfq R17W (Escherichia coli, UniProt P0A6X3 1-102, R17W); assay: fluorescence polarization
Ec Hfq G77W [4] = molecular target: T4, Ec Hfq G77W (Escherichia coli, UniProt P0A6X3 1-102, G77W); assay: fluorescence polarization
Ec Hfq F39W [5] = molecular target: T5, Ec Hfq F39W (Escherichia coli, UniProt P0A6X3 1-102, F39W); assay: fluorescence polarization
Ec Hfq F11W [6] = molecular target: T6, Ec Hfq F11W (Escherichia coli, UniProt P0A6X3 1-102, F11W); assay: fluorescence polarization
Hfq WT = Hfq WT (Escherichia coli, UniProt P0A6X3 1-102); assay: fluorescence polarization
Sa Hfq Q31W = Sa Hfq Q31W (Staphylococcus aureus, UniProt A0A0H3JV59 1-77, Q31W); assay: Trp fluorescence quenching
Sa Hfq F25W = Sa Hfq F25W (Staphylococcus aureus, UniProt A0A0H3JV59 1-77, F25W); assay: Trp fluorescence quenching
Ec Hfq Y25W = Ec Hfq Y25W (Escherichia coli, UniProt P0A6X3 1-102, Y25W); assay: Trp fluorescence quenching
Ec Hfq Q33W = Ec Hfq Q33W (Escherichia coli, UniProt P0A6X3 1-102, Q33W); assay: Trp fluorescence quenching
Ec Hfq F42W [7] = molecular target: T1, Ec Hfq F42W; assay: Trp fluorescence quenching
Lm Hfq F43W = molecular target: T7, Lm Hfq F43W (Listeria monocytogenes, UniProt Q92C58 1-77, F43W); assay: Trp fluorescence quenching
T7 sequence: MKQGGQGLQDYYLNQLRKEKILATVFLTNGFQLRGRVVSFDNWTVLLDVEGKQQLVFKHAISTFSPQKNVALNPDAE

Ec Hfq F11W [8] = molecular target: T6, Ec Hfq F11W; assay: Trp fluorescence quenching
Ec Hfq Y83W [9] = molecular target: T2, Ec Hfq Y83W; assay: Trp fluorescence quenching
Ec Hfq Y83W [10] = molecular target: T2, Ec Hfq Y83W; assay: Trp fluorescence quenching; remark: listed apart in the source
Ec Hfq G77W [11] = molecular target: T4, Ec Hfq G77W; assay: Trp fluorescence quenching
Ec Hfq F39W [12] = molecular target: T5, Ec Hfq F39W; assay: Trp fluorescence quenching
Ec Hfq R17W [13] = molecular target: T3, Ec Hfq R17W; assay: Trp fluorescence quenching

B1: A15 (fluorescein) (ssRNA)
RNA: AAAAAAAAAAAAAAA
Work on B1 yielded a Kd (Ec Hfq F42W [1]) of 0.28 ± 0.09 nM, a Kd (Ec Hfq Y83W [2]) of 7.4 ± 2.8 nM and a Kd (Ec Hfq Q95W) of 2.6 ± 1.1 nM. It also gave a Kd (Ec Hfq K31W) of 1.4 ± 0.5 nM, a Kd (Ec Hfq R17W [3]) of 3.7 ± 1.5 nM and a Kd (Ec Hfq G77W [4]) of 2.9 ± 1.7 nM. It also gave a Kd (Ec Hfq F39W [5]) of 0.59 ± 0.35 nM and a Kd (Ec Hfq F11W [6]) of 7.1 ± 0.6 nM.

B2: U16 (fluorescein) (ssRNA)
RNA: UUUUUUUUUUUUUUUU
In the case of B2, the Kd (Hfq WT) is reported as 6.6 nM.

B3: A15 (ssRNA)
RNA: AAAAAAAAAAAAAAA
B3: binds (Sa Hfq Q31W); binds (Sa Hfq F25W); binds (Ec Hfq Y25W). B3: binds (Ec Hfq Q33W).

B4: U6 (ssRNA)
RNA: UUUUUU
B4: binds (Ec Hfq F42W [7]); binds (Lm Hfq F43W).

B5: (AAG)5 (ssRNA)
RNA: AAGAAGAAGAAGAAG
B5: binds (Ec Hfq F11W [8]); binds (Ec Hfq Q33W).

B6: (GGA)5 (ssRNA)
RNA: GGAGGAGGAGGAGGA
B6: binds (Ec Hfq F42W [7]); binds (Ec Hfq Y83W [9]).

B7: (AU)3A (ssRNA)
RNA: AUAUAUA
B7: binds (Sa Hfq Q31W); binds (Sa Hfq F25W); binds (Lm Hfq F43W).

B8: (AC)3A (ssRNA)
RNA: ACACACA
B8: binds (Sa Hfq Q31W); binds (Sa Hfq F25W).

B9: (GU)3G (ssRNA)
RNA: GUGUGUG
B9: binds (Lm Hfq F43W).

B10: hfq mRNA site A 24-mer (structured_RNA)
RNA: AUUUUUUCAGAAUCGAAAGGUUCA
B10: binds (Ec Hfq Y83W [10]); binds (Ec Hfq G77W [11]); binds (Ec Hfq F39W [12]). B10: binds (Ec Hfq Q33W).

B11: hfq mRNA site B 24-mer (ssRNA)
RNA: GCAUAUAAGGAAAAGAGAGAAUGG
B11: binds (Ec Hfq F42W [7]); binds (Ec Hfq Y83W [10]); binds (Ec Hfq Y25W). B11: binds (Ec Hfq F39W [12]); binds (Ec Hfq F11W [8]); binds (Ec Hfq Q33W).

B12: hfq 5'-UTR (64 nt) (structured_RNA)
RNA: GGAUUUUUUCAGAAUCGAAAGGUUCAAAGUACAAAUAAGCAUAUAAGGAAAAGAGAGAAUGGGAUC
B12: binds (Ec Hfq F42W [7]); binds (Ec Hfq R17W [13]); binds (Ec Hfq Q33W).
